Consider 3 molecules from publication PMC5004264, “The pesticidal Cry6Aa toxin from Bacillus thuringiensis is structurally similar to HlyE-family alpha pore-forming toxins” (BMC Biology, 2016).

Test [1] concerns the target full-length, wild-type Cry6Aa1 (Bacillus thuringiensis) (UniProt Q45757). As to the kind of experiment: SEC + other: non-denaturing and denaturing SDS-PAGE; Superdex 75 26/90, 25 mM CAPS pH 10, 50 mM NaCl, 2.5 ml/min; first peak at the void volume held dimers (only monomers on denaturing SDS-PAGE), second peak predominantly monomer.
For test [2], the target named is T1, Cry6Aa trypsin-resistant core, polypeptide chain 12-390 (Bacillus thuringiensis, UniProt Q45757 12-390).
T1 construct: cut after Arg11 and after Arg390; Never separated from the C-terminal peptide without reduction; Cys88 is disulfide bonded to Cys451 of the peptide; also called main body of the toxin; major core
T1 sequence (looked up): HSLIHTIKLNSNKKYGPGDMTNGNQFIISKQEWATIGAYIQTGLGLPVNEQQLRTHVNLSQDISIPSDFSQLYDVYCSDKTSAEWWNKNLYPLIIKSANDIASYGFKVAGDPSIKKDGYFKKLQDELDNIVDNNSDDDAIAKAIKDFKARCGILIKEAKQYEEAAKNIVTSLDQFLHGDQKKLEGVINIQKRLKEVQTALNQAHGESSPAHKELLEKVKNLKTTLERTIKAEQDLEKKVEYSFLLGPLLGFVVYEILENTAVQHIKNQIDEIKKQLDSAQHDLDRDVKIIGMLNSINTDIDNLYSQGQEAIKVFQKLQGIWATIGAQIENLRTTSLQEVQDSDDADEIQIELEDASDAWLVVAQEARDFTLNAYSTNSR
As to the kind of experiment: intact mass LC-MS. Conditions: both partners purified.

A word on the stoichiometry N: it is a count of units in the complex or per binding partner.

For the molecule “full-length, wild-type Cry6Aa1 (from UniProt Q45757 1-475) (natural protein)”, the stoichiometry N in test [1] turned out to be 2.

B1: Cry6Aa C-terminal peptide CTP1 (residues 444-475) (peptide)
peptide: NSNLEYKCPENNFMIYWYNNSDWYNNSDWYNN
notes: Cys451 is disulfide bonded to Cys88 of chain 12-390
Regarding B1, the binding result in test [2] is “binds”.

B2: Cry6Aa C-terminal peptide CTP2 (residues 451-475) (peptide)
peptide: CPENNFMIYWYNNSDWYNNSDWYNN
notes: Minor species of the trypsin-processed toxin
B2: the binding result in test [2] is reported as “binds”.
